Experiments:
[1] = biological target: VARITECT (human polyclonal antibodies directed against Varicella Zoster antigens); assay: inhibition ELISA with VARITECT; gE content by ELISA divided by Lowry protein; lyophilised gE
[2] = biological target: VARITECT (human polyclonal antibodies directed against Varicella Zoster antigens); assay: inhibition ELISA with VARITECT; gE content divided by titer of the standard; lyophilised gE
[3] = biological target: VARITECT (human polyclonal antibodies directed against Varicella Zoster antigens); assay: inhibition ELISA with VARITECT; gE content by ELISA divided by Lowry protein; co-lyophilised gE/AS01
[4] = biological target: VARITECT (human polyclonal antibodies directed against Varicella Zoster antigens); assay: inhibition ELISA with VARITECT; gE content by ELISA divided by Lowry protein; sample gE/AS01 before lyophilisation
[5] = biological target: VARITECT (human polyclonal antibodies directed against Varicella Zoster antigens); assay: inhibition ELISA with VARITECT; gE content divided by titer of the standard; co-lyophilised gE/AS01
[6] = biological target: VARITECT (human polyclonal antibodies directed against Varicella Zoster antigens); assay: inhibition ELISA with VARITECT; gE content by ELISA divided by Lowry protein; gE before lyophilisation
[7] = biological target: VARITECT (human polyclonal antibodies directed against Varicella Zoster antigens); assay: inhibition ELISA with VARITECT; gE content by ELISA divided by Lowry protein; control VZV gE vaccine
[8] = biological target: VARITECT (human polyclonal antibodies directed against Varicella Zoster antigens); assay: inhibition ELISA with VARITECT; gE content divided by titer of the standard; control VZV gE vaccine

VZV gE antigen (truncated form of the Varicella Zoster Virus glycoprotein E) (from UniProt P09259 31-546)
Antigenic activity (gE/prot) [1]: 1.01 | Potency [2]: 0.98 | Antigenic activity (gE/prot) [3]: 0.99 | Antigenic activity (gE/prot) [4]: 0.96 | Potency [5]: 1.02 | Antigenic activity (gE/prot) [6]: 1.05 | Antigenic activity (gE/prot) [7]: 1.15 | Potency [8]: 0.92
